Measurements: publication PMC3314626, “Crystal Structures of the Tetratricopeptide Repeat Domains of Kinesin Light Chains: Insight into Cargo Recognition Mechanisms” (PLoS ONE, 2012)

Target: KLC1 TPR domain (kinesin light chain 1 tetratricopeptide repeat domain) (human) (UniProt Q07866)
Assay: ITC; protein-protein: 15 uM KLC1-TPR and 160 uM ALC1 protein; 25 C; 30 mM HEPES 7.4, 200 mM NaCl, 0.5 mM TCEP; one-site binding model

- Kd: 2.4 µM
- stoichiometry N: 0.85
Substance: cytosolic domain of ALC1 protein (alcadein-1) (domain or fragment)
